This passage reports % displacement, IC50 and Ki results from US20240165282A1, “CONFORMATIONAL CONSTRAINED SOMATOSTATIN RECEPTOR 3 PEPTIDE LIGANDS AND THEIR CONJUGATES AND USES THEREOF” (STARGET PHARMA LTD., priority 2021, published 2024).

Assay in all cases: 125I-Tyr11-SRIF-14 displacement
For assay [1], the target named is human cloned somatostatin receptor 4 (human) (UniProt P31391).
Assay [2] has as its target human cloned somatostatin receptor 5 (human) (UniProt P35346).
The target in assay [3] is human cloned somatostatin receptor 1 (human) (UniProt P30872).
In assay [4] the target is human cloned somatostatin receptor 3 (human) (UniProt P32745).
Assay [5] addresses human cloned somatostatin receptor 2 (human) (UniProt P30874).

*1 amine or outer side, *2 acyl side, *3 side chain or, on linkers, in order; H or OH if unused. Bridges are numbered along the chain shown (N, C = ends). Where no end group is shown, it is not given here. [ ]: non-standard residue; d: D form. The star is where a group is joined. DOTA = O=C(O)CN1CCN(CC(=O)O)CCN(CC(=O)*)CCN(CC(=O)O)CC1; N(2-mercaptoethyl)Gly = O=C(CN(CCS[*:3])[*:1])[*:2]; 4Amb = NCc1ccc(C(=O)O)cc1; NTEG = not defined here; Aoc = NCCCCCCCC(=O)O; GABA = NCCCC(=O)O

By IC50 is commonly meant the concentration that gives 50% inhibition. High values mean weaker potency, low ones greater potency. One may read the Ki as a measure of affinity in units of concentration, obtained from inhibition or displacement. Higher therefore signals weaker binding.

Chain of human cloned somatostatin receptor 2 (human) (P30874 whole entry): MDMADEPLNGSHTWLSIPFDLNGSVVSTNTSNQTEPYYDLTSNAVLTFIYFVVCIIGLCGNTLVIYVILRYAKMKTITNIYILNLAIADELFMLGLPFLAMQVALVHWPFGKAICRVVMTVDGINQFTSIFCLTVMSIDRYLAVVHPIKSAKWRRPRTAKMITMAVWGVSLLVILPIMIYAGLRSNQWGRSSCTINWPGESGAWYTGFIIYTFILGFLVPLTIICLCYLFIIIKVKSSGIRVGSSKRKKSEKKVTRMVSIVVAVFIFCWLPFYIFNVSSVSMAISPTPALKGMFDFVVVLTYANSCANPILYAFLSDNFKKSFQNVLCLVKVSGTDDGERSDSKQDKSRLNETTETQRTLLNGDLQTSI
Chain of human cloned somatostatin receptor 5 (human) (P35346 whole entry): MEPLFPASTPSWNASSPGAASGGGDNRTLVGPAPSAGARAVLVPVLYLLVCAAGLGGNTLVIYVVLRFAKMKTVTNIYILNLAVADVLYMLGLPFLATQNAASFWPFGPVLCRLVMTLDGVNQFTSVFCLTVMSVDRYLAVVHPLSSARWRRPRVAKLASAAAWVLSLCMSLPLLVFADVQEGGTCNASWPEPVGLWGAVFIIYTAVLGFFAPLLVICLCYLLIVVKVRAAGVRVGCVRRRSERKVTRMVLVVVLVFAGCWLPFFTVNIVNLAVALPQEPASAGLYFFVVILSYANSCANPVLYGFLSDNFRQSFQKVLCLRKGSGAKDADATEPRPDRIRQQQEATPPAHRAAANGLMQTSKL
Chain of human cloned somatostatin receptor 4 (human) (P31391 whole entry): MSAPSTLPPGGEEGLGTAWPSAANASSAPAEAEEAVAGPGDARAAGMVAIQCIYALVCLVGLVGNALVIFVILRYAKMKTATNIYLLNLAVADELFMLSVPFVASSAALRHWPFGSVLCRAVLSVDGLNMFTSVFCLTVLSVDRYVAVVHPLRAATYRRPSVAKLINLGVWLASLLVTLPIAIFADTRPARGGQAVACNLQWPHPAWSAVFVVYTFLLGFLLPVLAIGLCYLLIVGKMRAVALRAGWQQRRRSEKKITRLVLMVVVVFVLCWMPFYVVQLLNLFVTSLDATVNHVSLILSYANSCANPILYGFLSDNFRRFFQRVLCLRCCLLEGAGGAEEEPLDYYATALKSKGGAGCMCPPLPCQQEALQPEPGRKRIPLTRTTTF
Chain of human cloned somatostatin receptor 3 (human) (P32745 whole entry): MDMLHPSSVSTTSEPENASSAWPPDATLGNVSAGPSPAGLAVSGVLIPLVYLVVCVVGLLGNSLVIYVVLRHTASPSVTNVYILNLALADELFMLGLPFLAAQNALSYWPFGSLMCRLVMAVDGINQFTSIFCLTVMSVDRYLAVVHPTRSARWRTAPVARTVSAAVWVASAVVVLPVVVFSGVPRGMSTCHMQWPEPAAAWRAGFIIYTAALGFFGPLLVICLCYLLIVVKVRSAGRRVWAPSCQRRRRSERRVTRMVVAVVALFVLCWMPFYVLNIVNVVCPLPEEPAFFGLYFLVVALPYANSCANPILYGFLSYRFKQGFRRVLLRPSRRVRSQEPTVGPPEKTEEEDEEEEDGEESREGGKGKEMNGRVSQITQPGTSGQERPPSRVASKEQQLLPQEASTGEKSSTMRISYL
Chain of human cloned somatostatin receptor 1 (human) (P30872 whole entry): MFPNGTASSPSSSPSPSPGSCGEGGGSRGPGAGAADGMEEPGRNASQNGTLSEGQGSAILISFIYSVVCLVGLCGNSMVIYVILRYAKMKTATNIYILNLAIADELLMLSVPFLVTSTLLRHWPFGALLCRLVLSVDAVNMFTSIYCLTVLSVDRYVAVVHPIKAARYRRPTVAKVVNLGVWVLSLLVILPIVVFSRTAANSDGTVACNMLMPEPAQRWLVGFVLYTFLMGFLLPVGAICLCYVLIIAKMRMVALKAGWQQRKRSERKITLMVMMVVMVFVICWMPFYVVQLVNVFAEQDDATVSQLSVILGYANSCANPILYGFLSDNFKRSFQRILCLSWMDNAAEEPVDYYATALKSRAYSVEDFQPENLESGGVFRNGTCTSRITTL

In the case of {DOTA-4Amb}-[dF]RCF[dW]KTF[N(2-mercaptoethyl)Gly]-NH2 (disulfide 3-9) [SEQ ID NO: 18], the % displacement at 1 nM in assay [1] is 0%; in assay [2], 0%; in assay [3], 0%; in assay [4], 49%; in assay [5], 0%. The % displacement at 10 nM in assay [1] was found to be 8%; in assay [2], 0%; in assay [3], 4%; in assay [4], 85%; in assay [5] it was 0%.

B1: SEQ ID NO: 9 (peptide)
peptide: {DOTA}-[dF]KCF[dW]KTF[N(2-mercaptoethyl)Gly]-NH2
modifications: disulfide 3-9
SMILES: C[C@@H](O)[C@@H]1NC(=O)[C@H](CCCCN)NC(=O)[C@@H](Cc2c[nH]c3ccccc23)NC(=O)[C@H](Cc2ccccc2)NC(=O)[C@@H](NC(=O)[C@H](CCCCN)NC(=O)[C@@H](Cc2ccccc2)NC(=O)CN2CCN(CC(=O)O)CCN(CC(=O)O)CCN(CC(=O)O)CC2)CSSCCN(CC(N)=O)C(=O)[C@H](Cc2ccccc2)NC1=O
As to B1, the % displacement at 1 nM in assay [1] was determined as 0%; in assay [2] it was 0%; in assay [3], 4%; in assay [4] it was 59%; in assay [5], 0%. The % displacement at 10 nM in assay [1] was 0%; in assay [2], 12%; in assay [3] it was 10%; in assay [4], 91%; in assay [5], 0%. Also, the IC50 in assay [4] came out at 0.001 µM.

B2: SEQ ID NO: 24 (peptide)
peptide: {DOTA}-[dF]KCY[dW]KTF[N(2-mercaptoethyl)Gly]-NH2
modifications: disulfide 3-9
SMILES: C[C@@H](O)[C@@H]1NC(=O)[C@H](CCCCN)NC(=O)[C@@H](Cc2c[nH]c3ccccc23)NC(=O)[C@H](Cc2ccc(O)cc2)NC(=O)[C@@H](NC(=O)[C@H](CCCCN)NC(=O)[C@@H](Cc2ccccc2)NC(=O)CN2CCN(CC(=O)O)CCN(CC(=O)O)CCN(CC(=O)O)CC2)CSSCCN(CC(N)=O)C(=O)[C@H](Cc2ccccc2)NC1=O
In the case of B2, in assay [4], the % displacement at 1 nM is 66% and the % displacement at 10 nM was determined as 88%.

B3: SEQ ID NO: 16 (peptide)
peptide: K[dF]RCF[dW]KTF[N(2-mercaptoethyl)Gly]-NH2
modifications: disulfide 4-10; not fully specified (residue 1, N-terminus); printed as (DOTA)2-Lys1-D-Phe2-Arg3-Cys4-Phe5-D-Trp6-Lys7-Thr8-Phe9-NTEG10-NH2 (cyclo 3-9); also: (DOTA)2 on Lys1, sites not given here
For the molecule B3, the % displacement at 1 nM in assay [1] worked out at 0%; in assay [2], 0%; in assay [3], 0%; in assay [4] it was 47%; in assay [5], 6%. Moreover, the % displacement at 10 nM was determined as 0% in assay [1]; 3% in assay [2]; 5% in assay [3]; 88% in assay [4]; 2% in assay [5].

B4: SEQ ID NO: 1 (peptide)
peptide: H-[dF]RCF[dW]KTF[N(2-mercaptoethyl)Gly]-NH2
modifications: disulfide 3-9
SMILES: C[C@@H](O)[C@@H]1NC(=O)[C@H](CCCCN)NC(=O)[C@@H](Cc2c[nH]c3ccccc23)NC(=O)[C@H](Cc2ccccc2)NC(=O)[C@@H](NC(=O)[C@H](CCCNC(=N)N)NC(=O)[C@H](N)Cc2ccccc2)CSSCCN(CC(N)=O)C(=O)[C@H](Cc2ccccc2)NC1=O
For B4, the IC50 in assay [2] was 0.31 µM; in assay [3], 0.18 µM; in assay [4], 0.00043 µM; in assay [5] it was 0.39 µM. The Ki in assay [2] was found to be 0.17 µM; in assay [3], 0.15 µM; in assay [4], 0.00015 µM; in assay [5], 0.32 µM.

B5: SEQ ID NO: 12 (peptide)
peptide: {DOTA}-A[dF]RCF[dW]KTF[N(2-mercaptoethyl)Gly]-NH2
modifications: disulfide 4-10
SMILES: C[C@H](NC(=O)CN1CCN(CC(=O)O)CCN(CC(=O)O)CCN(CC(=O)O)CC1)C(=O)N[C@H](Cc1ccccc1)C(=O)N[C@@H](CCCNC(=N)N)C(=O)N[C@H]1CSSCCN(CC(N)=O)C(=O)[C@H](Cc2ccccc2)NC(=O)[C@H]([C@@H](C)O)NC(=O)[C@H](CCCCN)NC(=O)[C@@H](Cc2c[nH]c3ccccc23)NC(=O)[C@H](Cc2ccccc2)NC1=O
As for B5, the % displacement at 1 nM in assay [1] is 0%; in assay [2] it was 0%; in assay [3], 0%; in assay [4] it was 64%; in assay [5], 0%. Moreover, the % displacement at 10 nM in assay [1] is 0%; in assay [2], 13%; in assay [3], 10%; in assay [4], 93%; in assay [5] it was 0%.
Regarding {DOTA-Aoc}-[dF]RCF[dW]KTF[N(2-mercaptoethyl)Gly]-NH2 (disulfide 3-9) [SEQ ID NO: 15], the % displacement at 1 nM in assay [1] was determined as 0%; in assay [2], 0%; in assay [3], 6%; in assay [4], 49%; in assay [5] it was 1%. Besides, the % displacement at 10 nM came out at 0% in assay [1]; 0% in assay [2]; 18% in assay [3]; 87% in assay [4]; 0% in assay [5].

B6: SEQ ID NO: 2 (peptide)
peptide: H-[dF]KCF[dW]KTF[N(2-mercaptoethyl)Gly]-NH2
modifications: disulfide 3-9
SMILES: C[C@@H](O)[C@@H]1NC(=O)[C@H](CCCCN)NC(=O)[C@@H](Cc2c[nH]c3ccccc23)NC(=O)[C@H](Cc2ccccc2)NC(=O)[C@@H](NC(=O)[C@H](CCCCN)NC(=O)[C@H](N)Cc2ccccc2)CSSCCN(CC(N)=O)C(=O)[C@H](Cc2ccccc2)NC1=O
In assay [4], B6 registered an IC50 of 0.00073 µM and a Ki of 0.00025 µM.
Regarding {DOTA}-[dF]RCF[dW]KTF[N(2-mercaptoethyl)Gly]-NH2 (disulfide 3-9; also: Lu complex of DOTA) [SEQ ID NO: 6], the IC50 in assay [2] turned out to be 0.086 µM; in assay [3] it was 0.31 µM; in assay [4] it was 0.0009 µM; in assay [5], 0.21 µM. In addition, the Ki in assay [2] came to 0.048 µM; in assay [3], 0.26 µM; in assay [5], 0.11 µM.
Take {DOTA}-[dF]KCF[dW]KTF[NTEG]-NH2 (disulfide 3-9; reading uncertain; also: Ga chelated by DOTA) [SEQ ID NO: 10]: in assay [4], the % displacement at 1 nM was found to be 27%, the % displacement at 10 nM was determined as 75% and the IC50 worked out at 0.0024 µM.

B7: SEQ ID NO: 11 (peptide)
peptide: {DOTA}-G[dF]RCF[dW]KTF[N(2-mercaptoethyl)Gly]-NH2
modifications: disulfide 4-10
SMILES: C[C@@H](O)[C@@H]1NC(=O)[C@H](CCCCN)NC(=O)[C@@H](Cc2c[nH]c3ccccc23)NC(=O)[C@H](Cc2ccccc2)NC(=O)[C@@H](NC(=O)[C@H](CCCNC(=N)N)NC(=O)[C@@H](Cc2ccccc2)NC(=O)CNC(=O)CN2CCN(CC(=O)O)CCN(CC(=O)O)CCN(CC(=O)O)CC2)CSSCCN(CC(N)=O)C(=O)[C@H](Cc2ccccc2)NC1=O
With B7, the % displacement at 1 nM in assay [1] is 0%; in assay [2] it was 0%; in assay [3], 2%; in assay [4], 47%; in assay [5] it was 0%. Moreover, the % displacement at 10 nM in assay [1] turned out to be 0%; in assay [2] it was 0%; in assay [3] it was 19%; in assay [4], 88%; in assay [5] it was 0%.
As for {DOTA-GABA}-[dF]RCF[dW]KTF[N(2-mercaptoethyl)Gly]-NH2 (disulfide 3-9; also: Ga complex of DOTA) [SEQ ID NO: 8], the % displacement at 1 nM in assay [1] turned out to be 5%; in assay [2] it was 0%; in assay [3] it was 0%; in assay [4] it was 61%; in assay [5], 0%. In addition, the % displacement at 10 nM in assay [1] was found to be 4%; in assay [2], 15%; in assay [3], 10%; in assay [4], 88%; in assay [5], 10%.
Turning to {DOTA}-[dF]RCF[dW]KTF[N(2-mercaptoethyl)Gly]-NH2 (disulfide 3-9; also: Cu complex of DOTA) [SEQ ID NO: 5], the IC50 in assay [2] was 0.15 µM; in assay [3] it was 0.78 µM; in assay [4] it was 0.0009 µM; in assay [5], 0.42 µM. For the same molecule, the Ki in assay [2] amounted to 0.082 µM; in assay [3] it was 0.64 µM; in assay [5], 0.22 µM.
